# Data as given in patent US20250289897A1, “LEPTIN RECEPTOR AGONISTIC ANTIBODY AS MONO OR COMBO THERAPIES TO TREAT OBESITY” (ELI LILLY AND COMPANY, priority 2024, published 2025).
# Biological target: T1, human LEPR (Homo sapiens, UniProt P48357)
# T1 construct: introducing DNA plasmids encoding full-length LEPR of different species and STAT3-luciferase reporter gene into HEK293 cells; expressed in transfected cells; host or cells: HEK293 (HEK293-STAT3Luc-hLepR1)
# T1 sequence (P48357 22-1165): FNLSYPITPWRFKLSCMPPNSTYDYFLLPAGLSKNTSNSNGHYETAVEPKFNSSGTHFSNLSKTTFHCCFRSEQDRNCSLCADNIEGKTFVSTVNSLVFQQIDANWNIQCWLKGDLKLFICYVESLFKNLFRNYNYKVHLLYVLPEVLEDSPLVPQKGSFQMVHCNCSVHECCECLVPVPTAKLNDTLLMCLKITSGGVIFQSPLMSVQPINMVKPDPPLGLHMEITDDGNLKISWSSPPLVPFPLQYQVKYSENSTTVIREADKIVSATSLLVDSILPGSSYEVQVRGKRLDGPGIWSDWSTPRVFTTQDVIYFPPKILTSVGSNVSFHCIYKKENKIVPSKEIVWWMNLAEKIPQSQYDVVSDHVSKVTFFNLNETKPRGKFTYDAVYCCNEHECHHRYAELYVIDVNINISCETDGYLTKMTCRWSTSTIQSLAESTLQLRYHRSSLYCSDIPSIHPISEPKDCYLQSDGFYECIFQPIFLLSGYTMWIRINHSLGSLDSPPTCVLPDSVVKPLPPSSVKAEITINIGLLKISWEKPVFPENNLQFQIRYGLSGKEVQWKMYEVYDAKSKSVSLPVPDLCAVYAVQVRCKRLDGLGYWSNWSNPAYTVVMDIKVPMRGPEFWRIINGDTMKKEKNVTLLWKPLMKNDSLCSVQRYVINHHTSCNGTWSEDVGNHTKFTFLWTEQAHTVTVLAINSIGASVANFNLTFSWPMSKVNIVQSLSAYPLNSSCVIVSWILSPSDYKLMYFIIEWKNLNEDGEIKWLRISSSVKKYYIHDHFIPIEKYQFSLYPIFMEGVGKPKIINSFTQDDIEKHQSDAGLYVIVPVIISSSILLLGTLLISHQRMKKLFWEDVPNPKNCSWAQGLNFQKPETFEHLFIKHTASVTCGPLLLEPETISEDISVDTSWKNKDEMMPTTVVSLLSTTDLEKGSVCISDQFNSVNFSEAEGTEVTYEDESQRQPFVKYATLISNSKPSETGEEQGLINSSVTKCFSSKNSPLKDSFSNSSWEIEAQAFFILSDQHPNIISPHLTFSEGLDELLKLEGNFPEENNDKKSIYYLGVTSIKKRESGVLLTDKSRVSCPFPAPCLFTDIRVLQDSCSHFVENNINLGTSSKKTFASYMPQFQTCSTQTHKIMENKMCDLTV
# Assay: pERK induction (AlphaLISA p-ERK1/2) in HEK293-STAT3Luc-hLepR1 cells
# Format: cell-based
# Protocol: Antibodies were tested for the ability to induce phosphorylation of extracellular-signal-related kinase (pERK) in HEK293-STAT3Luc-hLepR1 cells. To measure pERK induction, cells were first cultured overnight at 37° C. in 96-well plate with DMEM medium supplemented with 10% FBS. On day 2, medium was removed, cells were washed in serum-free DMEM and incubated for an additional 24-hour in serum-free DMEM. On day 3, medium was removed and 1:4 series dilutions of antibodies A, B, and C with top concentration of 200nM in serum-free DMEM were added to the cells for 15 minutes. Testing was run in duplicates. Recombinant human leptin protein (SEQ ID NO:27) was used as a positive control in this assay. An IgGI with Fc modifications to ablate binding to Fcγ receptors was used as a negative control (IgG isotype control). Phospho-ERK1/2 was assessed in the whole cell lysate by measuring the amplified luminescence with AlphaLISA SureFire Ultra p-ERK1/2 (Thr202/Tyr204) kit (PerkinElmer, #ALSU-PERK-A-HV). Data was calculated using 4 parameters sigmoidal fit of the data (SigmaPlot software). Results, expressed in Table 12 are averaged EC50 of two independent experiments.
substance,measurement,setting,value
"human leptin: recombinant human leptin protein (SEQ ID NO:27), positive control",Baseline RLU,pERK AlphaLISA,29762.5 RLU
same,Maximum RLU,pERK AlphaLISA,137565 RLU
same,EC50,"pERK, 15 minutes, average of two independent experiments, read-out: EC50 (nM) ± STDEV",1.07 nM
